Data as given in patent publication US20240383988A1.

How the values were obtained:
human EGFR (human) [1] = biological target: human EGFR (human) (UniProt P00533); experiment: kinetics table of FIG. 2 (SPR is told in paragraph 123 for the other clones of the table); column head 10^-4 (s-1)
human EGFR (human) [2] = biological target: human EGFR (human) (UniProt P00533); experiment: kinetics table of FIG. 2 (SPR is told in paragraph 123 for the other clones of the table); column head 10^5 (s-1M-1)

koff (human EGFR (human) [1]): 5e-05 s⁻¹ | kon (human EGFR (human) [2]): 280000 M⁻¹ s⁻¹
B1: ER-2b (antibody, part only; not given: common light chain, V domains shown, part only)
VH: EVQLVESGGGLVQPGGSLRLSCAASGFNIYYAAMHWVRQAPGKGLEWVAFISPYYSYTSYADSVKGRFTISADTSKNTAYLQMNSLRAEDTAVYYCARYFHSSWYESSSPRAYYPGMDYWGQGTLVTVSS
